Reference: patent US20250025544A1

Assays:
[1] = target: … (EBV LMP2A, epitope 2) presented by HLA-A*0201 (human; EBV); assay: cell-based or functional assay
[2] = target: … (HCMV pp65, epitope 1) presented by HLA-A*0201 (human; HCMV); assay: cell-based or functional assay
[3] = scale: luciferase induction relative to uninfected controls

“TCR recognizing … presented by A*0201 (PDB #3REV), expressed on Jurkat-Lucia NFAT reporter T cells” gave an in vitro T cell activation assay (luciferase), targeting short cassette A (luciferase induction) [1] of 6.1, an in vitro T cell activation assay (luciferase), targeting short cassette B (luciferase induction) [1] of 6.3 and an in vitro T cell activation assay (luciferase), targeting short cassette C (luciferase induction) [1] of 7.6. It also gave an in vitro T cell activation assay (luciferase), targeting short cassette D (luciferase induction) [1] of 7, an in vitro T cell activation assay (luciferase), targeting short cassette E (luciferase induction) [1] of 5.9 and an in vitro T cell activation assay (luciferase), targeting short cassette F (luciferase induction) [1] of 3.7. The in vitro T cell activation assay (luciferase), targeting short cassette G (luciferase induction) [1] was 7.6, the in vitro T cell activation assay (luciferase), targeting short cassette H (luciferase induction) [1] was 5.4 and the in vitro T cell activation assay (luciferase), targeting short cassette I (luciferase induction) [1] was 6.2. The in vitro T cell activation assay (luciferase), targeting short cassette J (luciferase induction) [1] was 6.4, the induction of luciferase, short cassette AAY (luciferase induction) [1] was 11.3 and the luciferase induction, short cassette 9AA [1] was 12. The luciferase induction, short cassette 17AA [1] was 10.3, the luciferase induction, short cassette 25AA [1] was 14.6 and the luciferase induction, short cassette AAY [1] was 11.3. For the same substance, the luciferase induction, short cassette DPP [1] was 1.1 and the luciferase induction, short cassette RR [1] was 8.5.

“TCR recognizing … presented by A*0201 (PDB #5D2N), expressed on Jurkat-Lucia NFAT reporter T cells” showed an in vitro T cell activation assay (luciferase), targeting short cassette A (luciferase induction) [2] of 32.5, an in vitro T cell activation assay (luciferase), targeting short cassette B (luciferase induction) [2] of 31.8 and an in vitro T cell activation assay (luciferase), targeting short cassette C (luciferase induction) [2] of 29.1. The in vitro T cell activation assay (luciferase), targeting short cassette D (luciferase induction) [2] was 29.1, the in vitro T cell activation assay (luciferase), targeting short cassette E (luciferase induction) [2] was 28.4 and the in vitro T cell activation assay (luciferase), targeting short cassette F (luciferase induction) [2] was 20.4. It also gave an in vitro T cell activation assay (luciferase), targeting short cassette G (luciferase induction) [2] of 35, an in vitro T cell activation assay (luciferase), targeting short cassette H (luciferase induction) [2] of 30.3 and an in vitro T cell activation assay (luciferase), targeting short cassette I (luciferase induction) [2] of 22.5. It also gave an in vitro T cell activation assay (luciferase), targeting short cassette J (luciferase induction) [2] of 38.1, an induction of luciferase, short cassette AAY (luciferase induction) [2] of 24.5 and a luciferase induction, short cassette 9AA [2, 3] of 33.6. The luciferase induction, short cassette 17AA [2, 3] was 42.8, the luciferase induction, short cassette 25AA [2, 3] was 42.3 and the luciferase induction, short cassette AAY [2, 3] was 24.5. It also gave a luciferase induction, short cassette DPP [2, 3] of 0.9 and a luciferase induction, short cassette RR [2, 3] of 21.7.
